Measurements as given in article PMC6544321.

How the values were obtained:
[1] = target: single chain H2A-H2B with H2A P50A/N91G (yeast); test: ITC; 0.2 M NaCl (Table 1); Swc2-Z or Chz1-M injected into single-chain histone dimers; otherwise as the ITC methods (25°C, 20 mM MES pH 6.0)
[2] = target: single-chain H2A.Z-H2B with H2A.Z A57P/G98N (yeast); test: as above
[3] = target: yeast single-chain H2A.Z-H2B (yeast); test: as above
[4] = target: yeast single chain H2A-H2B (yeast); test: as above
[5] = target: A. thaliana Z-B dimer (AtH2A.Z/AtH2B dimer) (Arabidopsis thaliana); test: ITC; AtChz1b (253-463) with A. thaliana histone dimers in 0.1 M NaCl
[6] = target: A. thaliana Z-B dimer (AtH2A.Z/AtH2B dimer) (Arabidopsis thaliana); test: ITC; AtChz1b (253-463) with A. thaliana histone dimers in 0.25 M NaCl

| Substance | Kd [1] | stoichiometry N [1] | Kd [2] | stoichiometry N [2] | Kd [3] | stoichiometry N [3] | stoichiometry N [4] | Kd [5] | Kd [6] |
| --- | --- | --- | --- | --- | --- | --- | --- | --- | --- |
| Swc2-Z, the 1–136 segment of the Swc2 subunit of the SWR1 complex (domain or fragment) | 170 nM | 1 sites | 40 nM | 0.8 sites | 40 nM | 1.1 sites | 0.9 sites |  |  |
| AtChz1b (residues 253–463) (domain or fragment) |  |  |  |  |  |  |  | 50 nM | 19900 nM |
